T1: human Claudin 6 (human, UniProt P56747 1-220)
T1 sequence (looked up): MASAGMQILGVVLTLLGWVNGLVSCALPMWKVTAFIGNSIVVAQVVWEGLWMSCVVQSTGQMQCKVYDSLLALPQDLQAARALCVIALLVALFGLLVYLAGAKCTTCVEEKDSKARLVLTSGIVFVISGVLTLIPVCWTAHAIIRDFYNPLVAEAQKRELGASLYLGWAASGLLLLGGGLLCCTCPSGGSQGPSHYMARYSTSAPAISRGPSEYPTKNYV

T2: human Claudin 3 (human, UniProt O15551 1-220)
T2 construct: whole, on cells; also called CLDN3
T2 sequence (looked up): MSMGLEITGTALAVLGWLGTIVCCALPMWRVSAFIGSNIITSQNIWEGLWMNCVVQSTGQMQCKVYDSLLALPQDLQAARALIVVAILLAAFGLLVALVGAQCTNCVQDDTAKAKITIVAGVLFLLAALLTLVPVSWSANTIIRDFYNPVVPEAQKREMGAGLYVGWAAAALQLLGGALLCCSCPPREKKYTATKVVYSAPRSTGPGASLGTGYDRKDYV


What was measured:
human Claudin 6 [1] = target: T1, human Claudin 6; assay: cell-based or functional assay
human Claudin 6 [2] = target: T1, human Claudin 6; assay: flow cytometry, OVCAR3 cells (endogenous CLDN6), Ab titrated from 100 nM
Description: In this example, FACS binding of chimeric Abs to Ovcar3 and Ov90 cells with claudin 6 endogenous expression were assessed using flow cytometry.
(§1) Claudin 6 endogenous expression cell line were incubated with chimeric Abs (from 100 nM, 6-fold dilution, 8 points) for 60 minutes at 4° C. Cells were pelleted and washed twice with 2% FBS/PBS buffer, and stained with fluorescent conjugated secondary antibody at 4° C. for 30 minutes. After that the cells were washed twice and resuspended in 80 μL of 2% FBS/PBS buffer. Fluorescent signal of binding was detected using Agilent. The EC50 was calculated using the GraphPad software.

human Claudin 3 = target: T2, human Claudin 3; assay: flow cytometry, CHOK1/CLDN3 cells
Description: In this example, cell based binding of chimeric antibody 97-C10E1-2 toward human CLDN3 overexpression cell line were assessed using flow cytometry.
Briefly, cells were incubated with chimeric antibody (from 100 nM, 6 folds dilution, 8 points). After incubation at 4° C. for 60 minutes. Cells were pelleted and washed twice with 2% FBS/PBS buffer, and stained with fluorescent conjugated secondary antibody at 4° C. for 30 minutes. After that the cells were washed twice and resuspended in 80 μL of 2% FBS/PBS buffer. Fluorescent signal of binding was detected using Agilent. The EC50 was calculated using the GraphPad Software.

human Claudin 6 [3] = target: T1, human Claudin 6; assay: cell-based or functional assay; remark: listed apart in the source
human Claudin 6 [4] = target: T1, human Claudin 6; assay: flow cytometry, HEK293/H_CLDN6 cells, Ab titrated from 100 nM
Description: In this example, cell based binding of chimeric Abs on human CLDN6 & CLND9 over-expressing cell line were assessed using flow cytometry.
as §1, with “Briefly, the cells” for “Claudin 6 endogenous expression cell line”, “software (LaJolla, CA).” for “software.”

human Claudin 6 [5] = target: T1, human Claudin 6; assay: cell-based or functional assay; remark: listed apart in the source
human Claudin 6 [6] = target: T1, human Claudin 6; assay: cell-based or functional assay; remark: listed apart in the source
human Claudin 6 [7] = target: T1, human Claudin 6; assay: cell-based or functional assay; remark: listed apart in the source

Inhibition Rate (%) (HEK293/H_CLDN6) (human Claudin 6 [1]) | Top MFI (human Claudin 6 [2]) | internalization Top RLU (HEK293/H_CLDN6) (human Claudin 6 [3]) | Top MFI (human Claudin 6 [4]) | Binder | binding result (human Claudin 3) | Min cell viability, OV90 (CLDN6 low) (human Claudin 6 [5]) | Min cell viability, OVCAR-3 (CLDN6 mid) (human Claudin 6 [5]) | Min cell viability, PA-1 (CLDN6 high) (human Claudin 6 [5]) | cytotoxicity IC50 (nM), CLDN6 High Exp HEK293 cells, 5 days (human Claudin 6 [6]) | cytotoxicity IC50 (nM), OV90 cells, 5 days (human Claudin 6 [7]) | cytotoxicity IC50 (nM), OVCAR3 cells, 5 days (human Claudin 6 [7]) | cytotoxicity IC50 (nM), PA-1 cells, 5 days (human Claudin 6 [7])
83.4% | 2590 | 829000 RLU | 321000 | 97-C10E1-2 (antibody, V domains shown, Tested as chimeric antibody; also called chimeric antibody 97-C10E1-2) VH: EVQLQQSGPELVKPGASMKISCKASGYAFTGYTMNWVKQSHGKNLEWIGLSNPYNGGTIYNQKFKGKATLTVDKSSSTAYMELLSLTSEDSAVYYCARNYYYGSSYAYYYAMDYWGQGTSVTVSS VL: QAVVTQESALTTSPGETVTLTCRSSTGAVTTSNYANWVQEKPDHLFTGLIGGTNNRAPGVPARFSGSLIGDKAALTITGAQTEDEAIYFCALWYSNHWVFGGGTKLTVL | no binding (tested: 100 nM (highest concentration tested)) | – | – | – | – | – | – | –
– | – | – | – | z5-MMAE (antibody, V domains shown, MMAE conjugated to the antibody; residues and drug load not stated) VH: QVQLVQSGAEVKKPGASVKVSCKASGYAFTGYTMNWVRQAPGQGLEWIGLSNPYNAGTIYNQKFKGRVTMTVDKSTSTVYMELSSLRSEDTAVYYCARNYYYGSSYAYYYAMDYWGQGTTVTVSS VL: DIVVTQSPSSLSTSVGDRVTITCRSSTGAVTTSNYANWVQEKPGKAFKGLIGGTNNRAPGVPARFSGSLSGDDAALTISSAQPEDFATYFCALWYSNHWVFGGGTKVEIK | – | 8% | 3.71% | 4.88% | 0.1 nM | 0.76 nM | 0.13 nM | 0.11 nM
– | – | – | – | z5-Eribulin (antibody, V domains shown, eribulin conjugated to the antibody; residues and drug load not stated) VH: QVQLVQSGAEVKKPGASVKVSCKASGYAFTGYTMNWVRQAPGQGLEWIGLSNPYNAGTIYNQKFKGRVTMTVDKSTSTVYMELSSLRSEDTAVYYCARNYYYGSSYAYYYAMDYWGQGTTVTVSS VL: DIVVTQSPSSLSTSVGDRVTITCRSSTGAVTTSNYANWVQEKPGKAFKGLIGGTNNRAPGVPARFSGSLSGDDAALTISSAQPEDFATYFCALWYSNHWVFGGGTKVEIK | – | – | – | – | 0.1 nM | 4.66 nM | 0.11 nM | 0.46 nM
